Data from patent US20250215097A1 (BEIJING TIANNUOJIANCHENG PHARMA TECH, published 2025).
One block for each binder: values may come before it.

Experiments:
human CCR4 = biological target: T1, human CCR4 (human, UniProt P51679 1-360); experiment: flow cytometry of purified Fab on cells stably expressing human CCR4
T1 construct: also called hCCR4; human CCR4+ cells
T1 sequence: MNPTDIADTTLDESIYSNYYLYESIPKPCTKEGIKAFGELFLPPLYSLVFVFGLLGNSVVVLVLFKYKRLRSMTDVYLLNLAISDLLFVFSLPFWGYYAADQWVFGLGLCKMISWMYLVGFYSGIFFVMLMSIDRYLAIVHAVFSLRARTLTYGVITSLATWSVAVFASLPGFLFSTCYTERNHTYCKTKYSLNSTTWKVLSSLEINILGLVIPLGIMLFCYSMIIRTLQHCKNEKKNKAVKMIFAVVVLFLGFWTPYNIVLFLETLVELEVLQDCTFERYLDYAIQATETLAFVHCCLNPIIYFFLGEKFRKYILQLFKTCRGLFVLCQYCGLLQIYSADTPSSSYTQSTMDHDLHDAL
Protocol: The positive clones obtained in example 1 were re-induced to express and purified to obtain a Fab antibody. The binding to cells stably expressing human CCR8, cynomolgus monkey CCR8 and human CCR4 was tested respectively, 5×10⁴ test cells were added to each well of a 96-well U-shaped plate and centrifuged to discard the supernatant, 100 μL/well of the purified Fab antibody was added and the mixture was incubated on ice for 60 minutes. After washing away the unbound primary antibody, 50 μL of a secondary antibody solution (Anti-human IgG, F(ab′)2-AF647, Jackson Immuno Research) was added to each well and the mixture was incubated on ice for 30 minutes. After washing, 50 μL of a PI/BSA solution at 5 μg/mL was added to each well and the mixture was incubated on ice for 5 minutes. Then excess secondary antibody was washed away with 0.5% BSA, the cells were resuspended by adding a PBS solution, and binding of the antibody to the cells was detected using a flow cytometer (Intellicyte iQue).

human CCR8 [1] = biological target: T2, human CCR8 (human, UniProt P51685 1-355); experiment: flow cytometry, purified Fab on CHO-hCCR8 cells
T2 construct: Full-length human CCR8 stably expressed on CHO or HEK293 cells; also endogenous on HuT78 cells in one ADCC assay; also called hCCR8; CHO-hCCR8
T2 sequence (P51685 whole entry): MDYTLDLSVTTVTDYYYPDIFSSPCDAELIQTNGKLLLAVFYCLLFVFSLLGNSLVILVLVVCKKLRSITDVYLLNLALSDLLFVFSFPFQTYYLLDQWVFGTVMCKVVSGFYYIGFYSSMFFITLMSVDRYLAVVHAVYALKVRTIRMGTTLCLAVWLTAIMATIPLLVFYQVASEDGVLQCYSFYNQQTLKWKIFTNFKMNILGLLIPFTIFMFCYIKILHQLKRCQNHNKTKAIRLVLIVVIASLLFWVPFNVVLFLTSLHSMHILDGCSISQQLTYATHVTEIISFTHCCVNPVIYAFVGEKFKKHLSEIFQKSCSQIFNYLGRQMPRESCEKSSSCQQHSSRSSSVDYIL

human CCR8 [2] = biological target: T2, human CCR8; experiment: cell-based or functional assay
human CCR8 [3] = biological target: T2, human CCR8; experiment: cell-based or functional assay; remark: listed apart in the source
human CCR8 [4] = biological target: T2, human CCR8; experiment: flow cytometry, chimeric IgG on CHO-hCCR8 cells
Protocol: (§1) 5×10⁴ CHO-hCCR8 or CHO-cynoCCR8 cells were added per well in a 96-well U-shaped plate and centrifuged to discard the supernatant, 100 μL of a gradiently diluted anti-CCR8 chimeric antibody or anti-KLH isotype control antibody was added per well and the mixture was incubated on ice for 60 minutes. After the unbound primary antibody was washed away, 50 μL of a secondary antibody AlexaFluro647 anti-human IgG (Jackson Immuno Research #109-606-170) was added per well and the mixture was incubated on ice for 30 minutes. After the washing, 50 μL of 5 μg/mL of a PI/BSA solution was added to each well and the mixture was incubated on ice for 5 minutes. Then excess secondary antibody was washed away with 0.5% BSA, the cells were resuspended by adding a PBS solution, and binding of the antibody to the cells was detected using a flow cytometer (Intellicyte iQue). The fluorescence value of a Pi-negative cell population was analyzed. Cell-binding curves were fitted by Graphpad Prism 7 (FIG. 2). The chimeric antibodies of 87D8, 102H5, 109F6, 110G2, 113B3, 139A9, 144D2, etc. all bound with high affinities to human CCR8+ cells CHO-hCCR8 and cynomolgus monkey CCR8+ cells CHO-cynoCCR8.

human CCR8 [5] = biological target: T2, human CCR8; experiment: cell-based or functional assay; remark: listed apart in the source
cynomolgus monkey CCR8 = biological target: T3, cynomolgus monkey CCR8 (cynomolgus monkey, UniProt O97665 1-356 (rhesus entry)); experiment: flow cytometry, chimeric IgG on CHO-cynoCCR8 cells
T3 construct: Full-length, stably expressed on CHO cells; also called cynoCCR8; CHO-cynoCCR8
T3 sequence (O97665 other isoform, or with tags, fused parts or gaps): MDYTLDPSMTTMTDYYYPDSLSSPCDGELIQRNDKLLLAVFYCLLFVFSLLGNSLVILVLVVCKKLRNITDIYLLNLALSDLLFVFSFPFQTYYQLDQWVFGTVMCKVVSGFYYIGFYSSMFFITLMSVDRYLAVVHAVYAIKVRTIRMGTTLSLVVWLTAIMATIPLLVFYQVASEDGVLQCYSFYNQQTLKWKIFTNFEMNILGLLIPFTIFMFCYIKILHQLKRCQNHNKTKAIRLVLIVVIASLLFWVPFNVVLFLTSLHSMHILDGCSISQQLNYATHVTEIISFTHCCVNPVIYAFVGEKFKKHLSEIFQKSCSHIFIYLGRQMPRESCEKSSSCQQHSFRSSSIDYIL
Protocol: as §1

- binding result (human CCR4): no binding
B5: 102H5 Fab antibody (Fab, V domains shown)
VH: QVQLVESNGRLVQPKGSLKLSCAASGFTFNAYAMNWVRQAPGKGLEWVARIRSKSNNYATYYADSVKDRFTISRDDSQNMLYLQMNNLKTEDTAMYFCVRQKFGARGYYALDFWGQGATVTVSS
VL: DIVLTQSPASLAVSLGQRATISCRASESVEYYGTSLMQWYQQKPGQPPKLLIYAASNVESGVPARFSGSGSGTDFSLNIHPVEEDDIAMYFCQQSRKVPYTFGGGTKLEIK
notes: also called clone 102H5

- EC50 (human CCR8 [4]): 0.45 nM
- ADCC EC50 (nM), NK92-CD16A effectors, HEK293-hCCR8 targets, LDH release (human CCR8 [5]): 0.04 nM
- EC50 (cynomolgus monkey CCR8): 1.26 nM
B6: 110G2 anti-CCR8 chimeric antibody (antibody, V domains shown)
VH: QVQLVESNGRLVQPKGSLKLSCAASGFTFNAYAMNWVRQAPGKGLEWVARIRSKSNNYATYYADSVKDRFTISRDDSQSMLYLQMNNLKTEDTAMYFCVRQKFGARGYYALDFWGQGASVTVSS
VL: EILLTQSPAIMSASPGEKVTMTCRASSSVSSSYLHWYQQKSGASPKLWIYSTSNLASGVPARFSGSGSGTSYSLTISSVEAEDAATYYCQQYSGYPYTFGGGTKLEIK

- binding result (human CCR4): no binding
B9: 116F10 Fab antibody (Fab, V domains shown)
VH: EVQLVESYGGLVQPKGSLKLSCAASGFTFNAYAMNWVRQAPGKGLEWVARIRSKSNNYATYYADSVKDRFTISRDDSQNILYLQMNNLKIEDTAMYFCVRQKFGSRGYYALDFWGQGASVTVSS
VL: EIVLTQSPAIMSVSPGEKVTMTCRASSSVSSSYLHWYQQKSGASPKLWIYSTSTLASGVPARFSGSGSGTSYSLTISSVEAEDAATYYCQHYTVYPLGTFGGGTKLEIK
notes: also called clone 116F10

- EC50 (human CCR8 [4]): 0.49 nM
- ADCC EC50 (nM), NK92-CD16A effectors, HEK293-hCCR8 targets, LDH release (human CCR8 [5]): 0.06 nM
- EC50 (cynomolgus monkey CCR8): 1.99 nM
B10: 139A9 anti-CCR8 chimeric antibody (antibody, V domains shown)
VH: QVQLVESNGRLVQPKGSLKLSCAASGFTFNAYAMNWVRQAPGKGLEWVARIRSKSNNYATYYADSVKDRFTISRDDSQSMLYLQMNNLKTEDTAMYFCVRQKFGARGYYALDFWGQGASVTVSS
VL: ENVLTQSPTTMAASPGEKITITCSASSSISSNYLHWYQQKPGFSPKLLIYRTSNLASGVPARFSGSGSGTSYSLTIGTMEAEDVATYYCQQGSSIPLTFGAGTKLELK

- EC50 (human CCR8 [4]): 0.2 nM
- ADCC EC50 (nM), NK92-CD16A effectors, HEK293-hCCR8 targets, LDH release (human CCR8 [5]): 0.07 nM
- EC50 (cynomolgus monkey CCR8): 0.74 nM
B11: 109F6 anti-CCR8 chimeric antibody (antibody, V domains shown)
VH: QVQLVESNGRLVQPKGSLKLSCAASGFTFNAYAMNWVRQAPGKGLEWVARIRSKSNNYATYYADSVKDRFTISRDDSQSMLYLQMNNLKTEDTAMYFCVRQKFGARGYYALDFWGQGASVTVSS
VL: DIVLTQSPASLAVSLGQRATISCRASKSVSTSGYSYMHWYQQKPGQPPKLLIYLASNLESGVPARFSGSGSGTDFTLNIHPVEEEDAATYYCQHSRELPPTFGGGTKLEIK

Further lines, the binder ahead of its results:

B1: 144D2 Fab antibody (Fab, V domains shown)
VH: EVQLVESGGGLVQPKGSLKLSCAASGFTFNAFAMNWVRQAPGKGLEWVARIRSKSNNYATYYADSVIDRFTISRDDSQSMLYLQMNNLKTEDTAMYYCVRGKEAGAYYAMDYWGQGTSVTVSS
VL: DIVMTQAAPSVPVTPGESVSISCRSSKSLLHSNGNTYLYWFLQRPGQSPQLLIYRMSNLASGVPDRFSGSGSGTAFTLRISRVEAEDVGVYYCMQHLEYPLTFGAGTKLEIK
notes: also called clone 144D2; 144D2 (female parent)
- binding result (human CCR4): no binding
- EC50 (human CCR8 [1]): 2.8 nM

B2: h87D8 H1K1 hIgG1 e5 (antibody, V domains shown)
VH: EVQLVESGGGLVQPGGSLRLSCAASGFTFNTYAMNWVRQAPGKGLEWVARIRSKSNNYATYYADSVKGRFTISRDDSQSSLYLQMNSLRAEDTAVYYCVRGKEAGAYYAMDYWGQGTLVTVSS
VL: DIVMTQSPLSLPVTPGEPASISCRSSKSLLHSNGNTYLYWFLQKPGQSPQLLIYRMSNLASGVPDRFSGSGSGTDFTLKISRVEAEDVGVYYCMQHLEYPLTFGQGTKLEIKR
- ADCC maximal lysis rate, NK92-CD16A effectors, HEK293-hCCR8 targets (human CCR8 [2]): 58%
- half-maximal effective concentration EC50 of inhibition of the Ca2+ current signal, CHO-hCCR8 cells, CCL1 stimulus (human CCR8 [2]): 5.59 nM
- ADCC EC50 (nM), PBMC FcγRIIIA158F/F effectors, HEK293-hCCR8 targets (human CCR8 [3]): 0.01 nM
- ADCC EC50 (nM), PBMC FcγRIIIA158V/V effectors, HEK293-hCCR8 targets (human CCR8 [3]): 0.01 nM
- ADCC maximal lysis rate, PBMC FcγRIIIA158F/F effectors, HEK293-hCCR8 targets (human CCR8 [3]): 70%
- ADCC maximal lysis rate, PBMC FcγRIIIA158V/V effectors, HEK293-hCCR8 targets (human CCR8 [3]): 72%

B3: 102H5 anti-CCR8 chimeric antibody (antibody, V domains shown)
VH: QVQLVESNGRLVQPKGSLKLSCAASGFTFNAYAMNWVRQAPGKGLEWVARIRSKSNNYATYYADSVKDRFTISRDDSQNMLYLQMNNLKTEDTAMYFCVRQKFGARGYYALDFWGQGATVTVSS
VL: DIVLTQSPASLAVSLGQRATISCRASESVEYYGTSLMQWYQQKPGQPPKLLIYAASNVESGVPARFSGSGSGTDFSLNIHPVEEDDIAMYFCQQSRKVPYTFGGGTKLEIK
- EC50 (human CCR8 [4]): 0.46 nM
- ADCC EC50 (nM), NK92-CD16A effectors, HEK293-hCCR8 targets, LDH release (human CCR8 [5]): 0.06 nM
- EC50 (cynomolgus monkey CCR8): 1.18 nM

B4: 109F6 Fab antibody (Fab, V domains shown)
VH: QVQLVESNGRLVQPKGSLKLSCAASGFTFNAYAMNWVRQAPGKGLEWVARIRSKSNNYATYYADSVKDRFTISRDDSQSMLYLQMNNLKTEDTAMYFCVRQKFGARGYYALDFWGQGASVTVSS
VL: DIVLTQSPASLAVSLGQRATISCRASKSVSTSGYSYMHWYQQKPGQPPKLLIYLASNLESGVPARFSGSGSGTDFTLNIHPVEEEDAATYYCQHSRELPPTFGGGTKLEIK
notes: also called clone 109F6
- binding result (human CCR4): no binding

B7: 113B3 Fab antibody (Fab, V domains shown)
VH: EVQLVESNGGLVQPKGSLKLSCAASGFTFNAYAMNWVRQAPGKGLEWVARIRSKSNNYATYYADSVKDRFTISRDDSQSMLYLQMNNLKTEDTAMYFCVRQKFGSRGYYALDFWGQGATVTVSS
VL: QIVLTQSPAIMSASLGERVTMTCTASSSVSSSYLHWYQQKPGSSPKLWIYSTSNLASGVPARFSGSGSGTSYSLTISSMEAEDAATYYCHQYHRSPRTFGGGTRLEIK
notes: also called clone 113B3
- binding result (human CCR4): no binding

B8: 116F10 anti-CCR8 chimeric antibody (antibody, V domains shown)
VH: EVQLVESYGGLVQPKGSLKLSCAASGFTFNAYAMNWVRQAPGKGLEWVARIRSKSNNYATYYADSVKDRFTISRDDSQNILYLQMNNLKIEDTAMYFCVRQKFGSRGYYALDFWGQGASVTVSS
VL: EIVLTQSPAIMSVSPGEKVTMTCRASSSVSSSYLHWYQQKSGASPKLWIYSTSTLASGVPARFSGSGSGTSYSLTISSVEAEDAATYYCQHYTVYPLGTFGGGTKLEIK
- EC50 (human CCR8 [4]): 0.58 nM
- ADCC EC50 (nM), NK92-CD16A effectors, HEK293-hCCR8 targets, LDH release (human CCR8 [5]): 0.1 nM
- EC50 (cynomolgus monkey CCR8): 1.25 nM

B12: 113B3 anti-CCR8 chimeric antibody (antibody, V domains shown)
VH: EVQLVESNGGLVQPKGSLKLSCAASGFTFNAYAMNWVRQAPGKGLEWVARIRSKSNNYATYYADSVKDRFTISRDDSQSMLYLQMNNLKTEDTAMYFCVRQKFGSRGYYALDFWGQGATVTVSS
VL: QIVLTQSPAIMSASLGERVTMTCTASSSVSSSYLHWYQQKPGSSPKLWIYSTSNLASGVPARFSGSGSGTSYSLTISSMEAEDAATYYCHQYHRSPRTFGGGTRLEIK
- EC50 (human CCR8 [4]): 0.4 nM
- ADCC EC50 (nM), NK92-CD16A effectors, HEK293-hCCR8 targets, LDH release (human CCR8 [5]): 0.04 nM
- EC50 (cynomolgus monkey CCR8): 1.99 nM

B13: 139A9 Fab antibody (Fab, V domains shown)
VH: QVQLVESNGRLVQPKGSLKLSCAASGFTFNAYAMNWVRQAPGKGLEWVARIRSKSNNYATYYADSVKDRFTISRDDSQSMLYLQMNNLKTEDTAMYFCVRQKFGARGYYALDFWGQGASVTVSS
VL: ENVLTQSPTTMAASPGEKITITCSASSSISSNYLHWYQQKPGFSPKLLIYRTSNLASGVPARFSGSGSGTSYSLTIGTMEAEDVATYYCQQGSSIPLTFGAGTKLELK
notes: also called clone 139A9
- binding result (human CCR4): no binding

B14: 110G2 Fab antibody (Fab, V domains shown)
VH: QVQLVESNGRLVQPKGSLKLSCAASGFTFNAYAMNWVRQAPGKGLEWVARIRSKSNNYATYYADSVKDRFTISRDDSQSMLYLQMNNLKTEDTAMYFCVRQKFGARGYYALDFWGQGASVTVSS
VL: EILLTQSPAIMSASPGEKVTMTCRASSSVSSSYLHWYQQKSGASPKLWIYSTSNLASGVPARFSGSGSGTSYSLTISSVEAEDAATYYCQQYSGYPYTFGGGTKLEIK
notes: also called clone 110G2
- binding result (human CCR4): no binding
